Data taken from US20090263375A1 (WISCONSIN ALUMNI RESEARCH FOUNDATION, published 2009).

Target: T1, Flag-PAPα (canonical poly(A) polymerase) (Homo sapiens (Human), UniProt P51003 1-745, limits assumed)
T1 construct: not shown: FLAG tag
Experiment: FLAG affinity purification from HEK 293 cells, immunoblot with a CKIα specific antibody
Procedure: (A) FLAG purified Star-PAP and PAPα complexes were separated by SDS-PAGE, transferred to nitrocellulose and probed with anti-FLAG and -CKIα antibodies. (B) Endogeneous Star-PAP was immunoprecipitated from HEK 293 cells. The resulting precipitates were immunoblotted with Star-PAP and CKIα specific antibodies. A non-specific IgG immunoprecipitation was used as a control. (C) Purified FLAG-Star-PAP complex was incubated with 0, 0.1, 1.0, or 100 μM IC261 (IC₅₀ 11 μM). (D) Purified FLAG-Star-PAP complex was incubated with […] (IC₅₀˜6.0 μM) prior to initiation of the kinase reaction by ATP. Arrow indicates Star-PAP protein.
Casein Kinase Iα (CKIα), is a protein kinase found in nuclear speckles; moreover, CKIα activity is inhibited by PI4,5P₂. […] FLAG proteins were expressed and purified as follows. Human Star-PAP and rat CKIα cDNAs were cloned in to the pFLAG-1 mammalian expression vector (Sigma). For each FLAG purification, four 10 cm dishes each containing ˜5×10^6 HEK 293 cells were transfected with 10 μg DNA and allowed to express for 48 hours. FLAG purifications were performed according to the manufacturer's directions.

T1 sequence (P51003 whole entry): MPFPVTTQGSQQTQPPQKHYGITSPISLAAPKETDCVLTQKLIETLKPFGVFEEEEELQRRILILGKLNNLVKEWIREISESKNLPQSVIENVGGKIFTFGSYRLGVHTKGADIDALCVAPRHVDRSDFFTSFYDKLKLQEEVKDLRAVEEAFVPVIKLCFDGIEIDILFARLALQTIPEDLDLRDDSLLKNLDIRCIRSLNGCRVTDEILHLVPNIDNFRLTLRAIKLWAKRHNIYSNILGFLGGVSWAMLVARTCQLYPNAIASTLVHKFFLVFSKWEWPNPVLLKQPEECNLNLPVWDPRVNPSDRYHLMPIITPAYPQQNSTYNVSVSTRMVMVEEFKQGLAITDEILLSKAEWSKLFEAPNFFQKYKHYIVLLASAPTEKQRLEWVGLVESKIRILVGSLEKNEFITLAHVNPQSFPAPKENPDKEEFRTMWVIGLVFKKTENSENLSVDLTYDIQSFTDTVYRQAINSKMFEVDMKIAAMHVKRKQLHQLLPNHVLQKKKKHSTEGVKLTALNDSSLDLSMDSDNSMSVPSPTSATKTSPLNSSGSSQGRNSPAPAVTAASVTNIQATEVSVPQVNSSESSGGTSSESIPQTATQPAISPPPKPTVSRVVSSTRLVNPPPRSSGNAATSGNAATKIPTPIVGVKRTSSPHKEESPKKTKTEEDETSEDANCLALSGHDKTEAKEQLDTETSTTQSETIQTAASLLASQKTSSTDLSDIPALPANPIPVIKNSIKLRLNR

B1: Casein Kinase Iα (CKIα), endogenous (enzyme, human, UniProt P48729 2-337, looked up)
chain: ASSSGSKAEFIVGGKYKLVRKIGSGSFGDIYLAINITNGEEVAVKLESQKARHPQLLYESKLYKILQGGVGIPHIRWYGQEKDYNVLVMDLLGPSLEDLFNFCSRRFTMKTVLMLADQMISRIEYVHTKNFIHRDIKPDNFLMGIGRHCNKLFLIDFGLAKKYRDNRTRQHIPYREDKNLTGTARYASINAHLGIEQSRRDDMESLGYVLMYFNRTSLPWQGLKAATKKQKYEKISEKKMSTPVEVLCKGFPAEFAMYLNYCRGLRFEEAPDYMYLRQLFRILFRTLNHQYDYTFDWTMLKQKAAQQAASSSGQGQQAQTPTGKQTDKTKSNMKGF
notes: Detected with a CKIα specific antibody; also called CIKIα
  binding result: no binding
